T1: EpEX binding to HGFR (Homo sapiens, UniProt P16422)
T1 construct: the soluble extracellular domain of EpCAM (EpEX); His; made in house; host or cells: Expi293
T1 sequence (P16422 24-265 limits assumed): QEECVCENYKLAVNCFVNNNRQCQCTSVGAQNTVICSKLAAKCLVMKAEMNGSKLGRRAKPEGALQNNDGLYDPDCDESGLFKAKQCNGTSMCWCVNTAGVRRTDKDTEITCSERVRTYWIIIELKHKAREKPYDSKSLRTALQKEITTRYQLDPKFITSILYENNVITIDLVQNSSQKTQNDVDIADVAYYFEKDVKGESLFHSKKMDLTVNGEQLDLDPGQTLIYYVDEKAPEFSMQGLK


Tests used:
HT29 cells = assay: Cell growth by WST-1 assay, HT29; format: cell-based, human; settings: 50 nM EpEX and SU 10 μM, FIG. 2D
Procedure: FIGS. 2A to 2K. EpEX promotes tumor progression via HGFR signaling. (FIG. 2A) WT or EpCAM knockout (KO) HCT116 and HT29 cells treated with HGF (0.5 nM) for 15 min. The phosphorylation of HGFR, AKT, and ERK was examined by Western blotting. (FIG. 2B) WT or KO HCT116 and HT29 cells were treated with HGF (0.5 nM) with 2% FBS for the indicated times. Cell growth was examined by the WST-1 assay. (FIG. 2C) Starved HCT116 cells were treated with HGFR inhibitor SU11274 (SU, 10 μM) for 1 h then treated with 50 nM of EpEX-His for 15 min. The levels of phosphorylated HGFR, EGFR, AKT, and ERK were examined by Western blotting. HCT116 and HT29 cells were treated with 50 nM EpEX and SU (10 μM). (FIG. 2D) Cell growth was examined by WST-1 assay after treatment for indicated time. (FIG. 2E) HCT116 cells were treated with shLuc or HGFR shRNA then treated with 50 nM of EpEX-His for 15 min. The levels of phosphorylated HGFR, EGFR, ERK, and AKT were examined in HGFR knockdown HCT116 cells by Western blotting. (FIG. 2F) The levels of phosphorylated ADAM17 and presenilin 2 were examined by Western blotting. […]
Cell viability was assayed by measuring mitochondrial dehydrogenase activity with the WST-1 (4-[3-(4-lodophenyl)-2-(4-nitrophenyl)-2H-5-tetrazolio]-1, 3-benzene disulfonate) assay. […] Following the incubation, absorbance of each well was detected at 450 nm using a spectrophotometric microplate reader.

HCT116 or HT29 = assay: Metastatic and orthotopic animal models of colon cancer, overall statements
Procedure: Colon cancer HCT116 or HT29 (5×10^6 cells/mouse) in PBS were injected into 4-6-week-old female NOD/SCID mice through the tail vein. Mice were then randomly assigned to different treatment groups by body weight. After 3 days, antibodies were administered through tail vein injection twice a week for four consecutive weeks. Crizotinib was administered daily by oral gavage for 5 days per week (treatment for four weeks). For the therapeutic study, tumor-bearing mice were treated with isotype control IgG1 (15 mg/kg), crizotinib (20 mg/kg), EpAb2-6 (15 mg/kg), or crizotinib (20 mg/kg) combined with EpAb2-6 (15 mg/kg). Mouse survival rate were measured.
Orthotopic tumor models were created as previously reported (Chen et al., 2020). Briefly, NSCID mice were used for orthotopic implantation of HCT116 cells previously infected with Lenti-luc virus (lentivirus containing luciferase gene). The mice were anesthetized by i.p. injection ofAvertin, 2,2,2-Tribromo-ethanol (Sigma-Aldrich) at a dose of 250 mg/kg. Tumor development was monitored by bioluminescence imaging. For the therapeutic study, tumor-bearing mice were treated with isotype control IgG1 (15 mg/kg), crizotinib (20 mg/kg), EpAb2-6 (15 mg/kg), or crizotinib (20 mg/kg) combined with EpAb2-6 (15 mg/kg). Tumor progression was monitored by quantification of bioluminescence. Mouse survival was also monitored.

HCT116-Luc cells = assay: Orthotopic animal model, HCT116-Luc; settings: EpAb2-6 15 mg/kg, crizotinib 20 mg/kg, FIG. 9D, 9E
Procedure: (FIG. 9C) Timeline of the experiment to evaluate EpAb2-6 and/or crizotinib in the in orthotopic animal models. (FIG. 9D) NOD/SCID mice received orthotopic implantation of HCT116-Luc cells and then were treated with control IgG (normal mouse IgG, NMIgG), crizotinib, EpAb2-6, or crizotinib combined with EpAb2-6 starting at 3 days after tumor inoculation (n=5). Tumor growth was monitored by examining bioluminescence with the IVIS 200 Imaging System. (FIG. 9E) HCT116-Luc tumor cells monitored by bioluminescence quantification. […] (FIG. 9H) NOD/SCID mice were orthotopically implanted with HT29-Luc cells and then treated with control IgG, crizotinib, EpAb2-6, or crizotinib combined with EpAb2-6 starting at 3 days after tumor inoculation (n=5). Tumor growth was monitored by examining bioluminescence with an IVIS 200 Imaging System. (FIG. 9I) HT29-Luc tumor cells monitored by bioluminescence quantification.
Orthotopic tumor models were created as previously reported (Chen et al., 2020). Briefly, NSCID mice were used for orthotopic implantation of HCT116 cells previously infected with Lenti-luc virus (lentivirus containing luciferase gene). […] Tumor development was monitored by bioluminescence imaging. […] Tumor progression was monitored by quantification of bioluminescence. Mouse survival was also monitored.

EpEX binding to HGFR = biological target: T1, EpEX binding to HGFR; assay: ELISA of EpEX-His binding to HGFR-Fc-coated plates; settings: EpEX-His 2 μg/ml with 1 μg antibody; HGFR-Fc 1 μg/ml coated; FIG. 6F
Procedure: FIGS. 6A to 6J. EpAb2-6 inhibits EpCAM and HGFR signaling and promotes active β-catenin and Snail protein degradation via activating GSK3β. (FIG. 6A) HCT116 cells were treated with 10 μg/ml control IgG (normal mouse IgG, NMIgG) or mouse EpAb2-6 (EpAb2-6) for 16 h, followed by treatment with EpEX-His (50 nM) for 15 min. Levels of phosphorylated HGFR, AKT, FAK, GSK3β, ERK, ADAM17, and presenilin 2 were examined by Western blotting. (FIG. 6B) HCT116 cells were treated with 10 μg/ml control IgG or mouse EpAb2-6 for 16 h, followed by treatment without or with HGF (0.5 nM) for 15 min. Levels of phosphorylated HGFR, AKT, and ERK were examined by Western blotting. HCT116 cells were treated with mouse EpAb2-6 (10 μg/ml) and HGF (0.5 nM). […] (FIG. 6D) Cell invasion was assessed by a Transwell assay with matrigel after 24 h. […] (FIG. 6F) EpEX-His (2 μg/ml) co-treated with 1 μg IgG or EpAb2-6 was added to HGFR-Fc-coated (1 μg/ml) ELISA plates and detected by TMB colorimetric peroxidase assay. (FIG. 6G) EMT associated protein levels were detected by Western blotting in HCT116 cells treated with NMIgG or EpAb2-6 for 24 h. (FIG. 6H) Protein expression was analyzed by Western blotting in HCT116 cells after treatment with EpAb2-6 and 2 μM GSK3β inhibitor (BIO) for 24 h. Quantification of the normalized protein expression in the bottom panel. […]

[1] = test system: GSK3β, active β-catenin and Snail; assay: Western blotting of GSK3β, active β-catenin, Snail and EMT proteins in HCT116 cells; format: cell-based, human

Molecule	EpEX-induced increases in cell viability and proliferation (HT29 cells)	survival (HCT116 or HT29)	tumor progression (HCT116 or HT29)	bioluminescence intensities (HCT116-Luc cells)	EpEX binding to HGFR (EpEX binding to HGFR)	Active β-catenin and Snail steady-state protein levels ([1]; 10 μM MG132 and EpAb2-6 for 6 h, FIG. 6I)	activating phosphorylation of GSK3β at Y216 (active GSK3β) ([1]; 24 h, FIG. 6H)	suppressive phosphorylation of GSK3β at S9 (inactive GSK3β) ([1]; 24 h, FIG. 6H)	levels of E-cadherin ([1]; 24 h, vs control IgG, FIG. 6G)	levels of Snail and the active β-catenin ([1]; 24 h, vs control IgG, FIG. 6G)
Cc1[nH]c(C=C2C(=O)Nc3ccc(S(=O)(=O)N(C)c4cccc(Cl)c4)cc32)c(C)c1C(=O)N1CCN(C)CC1 (stereo in doubt) [SU11274, (3Z)-N-(3-Chlorophenyl)-3-({3,5-dimethyl-4-[(4-methylpiperazin-1-yl)carbonyl]-1H-pyrrol-2-yl}methylene)-N-methyl-2-oxo-2,3-dihydro-1H-indole-5-sulfonamide]	abolished the EpEX-induced increases in cell viability and proliferation									
EpAb2-6: anti-EpCAM neutralizing monoclonal antibody targeting EpEX; VH SEQ ID NO: 15, VL SEQ ID NO: 16 (antibody, listed as Homo sapiens, V domains shown) VH: VKLQESGPELKKPGETVKISCKASGYTFTDYSMHWVKQAPGKGLKWMGWINTETGEPTYADDFKGRFAFSLETSASTAYLQINNLKNEDTATYFCARTAVYWGQGTTVTVSS VL: DIQMTQSPSSLSASLGERVSLTCRASQEISVSLSWLQQEPDGTIKRLIYATSTLDSGVPKRFSGSRSGSDYSLTISSLESEDFVDYYCLQYASYPWTFGGGTKLEIKRADAAPTVS		higher median survival than the control IgG- or crizotinib-treated groups	much slower tumor progression	significantly decreased compared to the control IgG or crizotinib alone groups	inhibit EpEX binding to HGFR	reduced	increased activating phosphorylation of the protein at Y216	decreased suppressive phosphorylation of GSK3β at S9	increased the levels of E-cadherin	decreasing Snail and the active β-catenin

— patent US20250269018A1, “COMBINED CANCER THERAPY WITH AN EPITHELIAL CELL ADHESION MOLECULE (EPCAM) INHIBITOR AND A HEPATOCYTE GROWTH FACTOR RECEPTOR (HGFR) INHIBITOR” (ACADEMIA SINICA, priority 2021, published 2025)
